Target: T1, ankyrin-repeat-, SH3-domain- and proline-rich-region-containing protein 2 (ASPP2), FLAG-tagged (UniProt Q8CG79 1-1128)
T1 construct: ASPP2, FLAG-tagged, co-expressed with HA-MAGI-3 in a heterologous expression system; HEK293 is probably the host; also called FLAG-ASPP2; source: heterologous expression system, in lysate
T1 sequence (looked up): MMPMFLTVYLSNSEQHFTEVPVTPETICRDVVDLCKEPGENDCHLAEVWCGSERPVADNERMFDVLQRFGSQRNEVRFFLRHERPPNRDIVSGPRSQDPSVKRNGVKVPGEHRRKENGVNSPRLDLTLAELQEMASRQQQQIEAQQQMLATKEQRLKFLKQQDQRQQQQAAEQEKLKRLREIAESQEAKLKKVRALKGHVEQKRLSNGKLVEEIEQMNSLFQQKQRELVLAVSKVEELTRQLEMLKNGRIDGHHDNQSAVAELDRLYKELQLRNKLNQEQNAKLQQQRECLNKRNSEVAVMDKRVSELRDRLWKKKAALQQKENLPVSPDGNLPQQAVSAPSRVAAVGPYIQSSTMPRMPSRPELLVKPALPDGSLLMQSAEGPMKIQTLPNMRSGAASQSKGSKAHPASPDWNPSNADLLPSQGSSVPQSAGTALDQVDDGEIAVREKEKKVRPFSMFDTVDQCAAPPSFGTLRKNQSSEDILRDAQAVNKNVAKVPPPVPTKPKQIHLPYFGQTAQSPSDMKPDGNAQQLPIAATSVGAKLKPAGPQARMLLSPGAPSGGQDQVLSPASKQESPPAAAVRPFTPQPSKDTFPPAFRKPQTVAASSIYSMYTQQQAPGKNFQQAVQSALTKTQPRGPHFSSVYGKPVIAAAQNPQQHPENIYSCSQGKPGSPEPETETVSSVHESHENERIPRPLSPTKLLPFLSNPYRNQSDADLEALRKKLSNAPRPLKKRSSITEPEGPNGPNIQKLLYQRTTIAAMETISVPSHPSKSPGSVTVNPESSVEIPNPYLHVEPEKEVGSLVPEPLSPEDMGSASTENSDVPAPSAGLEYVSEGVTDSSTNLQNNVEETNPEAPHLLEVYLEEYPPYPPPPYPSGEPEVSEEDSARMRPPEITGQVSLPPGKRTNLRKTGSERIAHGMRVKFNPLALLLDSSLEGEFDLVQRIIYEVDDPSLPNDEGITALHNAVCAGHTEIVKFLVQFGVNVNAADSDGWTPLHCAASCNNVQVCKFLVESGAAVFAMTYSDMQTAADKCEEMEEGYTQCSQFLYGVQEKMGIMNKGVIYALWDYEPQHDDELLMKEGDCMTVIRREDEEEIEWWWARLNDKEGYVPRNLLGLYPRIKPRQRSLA
Experiment: co-IP; FLAG immunoprecipitation in a heterologous expression system; FLAG-ASPP2 and HA-MAGI-3 co-expressed with GFP-RASSF10; 20 mM Tris-HCl pH 7.5, 150 mM NaCl, 1% Triton X-100; blot quantified, normalised to GFP control
Conditions: partners not purified

fold co-precipitation with GFP-RASSF10 co-expressed, over GFP alone: ~4 fold
B1: MAGI-3 (natural protein, UniProt Q9EQJ9 1-1476, looked up)
chain: MSKTLKKKKHWLSKVQECAVSWAGPPGDLGAEIRGGAERGEFPYLGRLRDEAGGGGGTCCVVSGKAPSPGDVLLEVNGTPVSGLTNRDTLAVIRHFREPIRLKTVKPGKVINKDLRHYLSLQFQKGSIDHKLQQVIRDNLYLRTIPCTTRAPRDGEVPGVDYNFISVEQFKALEESGALLESGTYDGNFYGTPKPPAEPSPFQPDPVDQVLFDNEFDTESQRKRTTSVSKMERMDSSLPEEEEDEDKEAVNGSGSMETREMHSETSDCWMKTVPSYNQTNSSMDFRNYMMRDENLEPLPKNWEMAYTDTGMIYFIDHNTKTTTWLDPRLCKKAKAPEDCEDGELPYGWEKIEDPQYGTYYVDHLNQKTQFENPVEEAKRKKQLGQAEIHSAKTDVERAHFTRDPSQLKGVLVRASLKKSTMGFGFTIIGGDRPDEFLQVKNVLKDGPAAQDGKIAPGDVIVDINGNCVLGHTHADVVQMFQLVPVNQYVNLTLCRGYPLPDDSEDPVVDIVAATPVINGQSLTKGETCMNTQDFKLGAMVLDQNGKSGQILASDRLNGPSESSEQRASLASSGSSQPELVTIPLIKGPKGFGFAIADSPTGQKVKMILDSQWCQGLQKGDIIKEIYHQNVQNLTHLQVVEVLKQFPVGADVPLLILRGGPCSPTKTAKTKTDTKENSGSLETINEPIPQPMPFPPSIIRSGSPKLDPSEVYLKSKTLYEDKPPNTKDLDVFLRKQESGFGFRVLGGDGPDQSIYIGAIIPLGAAEKDGRLRAADELMCIDGIPVKGKSHKQVLDLMTTAARNGHVLLTVRRKIFYGEKQPEDESHQAFSQNGSPRLNRAELPTRSAPQEAYDVTLQRKENEGFGFVILTSKSKPPPGVIPHKIGRVIDGSPADRCGGLKVGDHISAVNGQSIVDLSHDNIVQLIKDAGVTVTLTVVAEEEHHGPPSGTNSARQSPALQHRPMGQAQANHIPGDRIALEGEIGRDVCSSYRHSWSDHKHLAQPDTAVISVVGSRHNQSLGCYPVELERGPRGFGFSLRGGKEYNMGLFILRLAEDGPAIKDGRIHVGDQIVEINGEPTQGITHTRAIELIQAGGNKVLLLLRPGTGLIPDHGDWDTNSPSSSNVIYDEQPPPLPSSHSASTFEESHVPATEDSLTRVQICEKAEELKDTVQEKKSTLNGSQPEMKYQSVHKTMSKKDPPRGSGHGEKSRLKGENGVTRRGRSASPKKSVNRHSEEHLEKIPRPLKSDPKEKSRDRSLSPRKGESKGRLTIKAGSGQDPYRKDRGRSSSPKKQQKIGGNSLSNTEGKLSEAGSRRAAGHPRDSTEQLPDGREKSGVSRKDLKQSQPGKTRTKSPEKKSSKVDETSLPSKKTSSTAGRVVSEKEKGKKPTAGETSRETVEHTQISAKQLKQEAQEKTALGNADDHKGRESEVTDRCRERAGCTPQSSSLVKKAPITPGPWRVPRANKVTGTTGMADKQL
notes: MAGI-3, expressed in a heterologous expression system for FLAG immunoprecipitation; HEK293 is probably the host; also called HA-MAGI-3; MAGI proteins; source: heterologous expression system, in lysate

From article PMC7954791, “MAGIs regulate aPKC to enable balanced distribution of intercellular tension for epithelial sheet homeostasis” (Communications Biology, 2021)
